The values that follow come from paper PMC5316852.

This test has as its target NavMs prokaryotic sodium channel, wild type, full-length construct (Magnetococcus marinus (Magnetococcus sp. strain MC-1)) (UniProt A0L5S6). Put plainly: crystal structure; sitting drop, 0.05 M NaCl, 0.1 M MES pH 6.5, 37.8% v/v PEG 400, 4% ethylene glycol; protein purified in HEGA-10; molecular replacement with NavAb (PDB 3RVY).

The substance “NavMs prokaryotic sodium channel, wild type, full-length construct (from UniProt A0L5S6 1-274) (natural protein)” returned a stoichiometry N of 4.

As usually defined, the stoichiometry N is a count of units in the complex or per binding partner.
